The star is where a group is joined. Biotin = O=C1N[C@H]2[C@H](CS[C@H]2CCCCC(=O)*)N1; Ttds = NCCCOCCOCCOCCCNC(=O)CCC(=O)*
Legend:
[1] = target: T1, recombinant human α-mannosidase (LAMAN) (human, UniProt O00754 50-1011, limits assumed); assay: pulldown with biotinylated peptide on streptavidin beads, neutral pH, coomassie
T1 sequence (looked up): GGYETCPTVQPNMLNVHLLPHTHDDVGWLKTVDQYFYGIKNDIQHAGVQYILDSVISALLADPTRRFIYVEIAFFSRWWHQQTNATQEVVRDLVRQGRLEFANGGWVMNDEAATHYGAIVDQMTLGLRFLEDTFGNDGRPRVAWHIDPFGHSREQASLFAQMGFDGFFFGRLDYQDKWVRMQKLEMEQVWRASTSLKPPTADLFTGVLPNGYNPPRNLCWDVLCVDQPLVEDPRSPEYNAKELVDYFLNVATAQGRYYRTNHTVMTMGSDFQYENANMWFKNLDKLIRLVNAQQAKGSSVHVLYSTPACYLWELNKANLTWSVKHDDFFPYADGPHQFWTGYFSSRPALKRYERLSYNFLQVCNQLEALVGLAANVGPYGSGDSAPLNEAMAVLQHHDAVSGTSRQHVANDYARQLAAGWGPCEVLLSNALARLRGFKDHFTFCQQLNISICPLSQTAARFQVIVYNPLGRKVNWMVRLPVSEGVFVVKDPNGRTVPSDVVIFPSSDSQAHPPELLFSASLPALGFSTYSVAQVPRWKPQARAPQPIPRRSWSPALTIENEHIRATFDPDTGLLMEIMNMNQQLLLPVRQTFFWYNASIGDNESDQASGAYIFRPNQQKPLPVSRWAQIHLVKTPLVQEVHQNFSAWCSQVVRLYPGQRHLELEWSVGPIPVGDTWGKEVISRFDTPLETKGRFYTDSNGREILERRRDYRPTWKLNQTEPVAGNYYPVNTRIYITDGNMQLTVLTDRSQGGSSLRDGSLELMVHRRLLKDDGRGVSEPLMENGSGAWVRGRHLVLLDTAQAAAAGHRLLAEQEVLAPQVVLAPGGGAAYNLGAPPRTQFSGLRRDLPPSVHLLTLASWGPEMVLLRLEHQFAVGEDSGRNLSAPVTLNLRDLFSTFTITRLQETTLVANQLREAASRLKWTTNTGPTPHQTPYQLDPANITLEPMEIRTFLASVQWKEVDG

[2] = target: bovine serum albumin (BSA) (bovine, UniProt P02769 25-607); assay: as above
Chain of bovine serum albumin (BSA) (P02769 25-607 limits assumed): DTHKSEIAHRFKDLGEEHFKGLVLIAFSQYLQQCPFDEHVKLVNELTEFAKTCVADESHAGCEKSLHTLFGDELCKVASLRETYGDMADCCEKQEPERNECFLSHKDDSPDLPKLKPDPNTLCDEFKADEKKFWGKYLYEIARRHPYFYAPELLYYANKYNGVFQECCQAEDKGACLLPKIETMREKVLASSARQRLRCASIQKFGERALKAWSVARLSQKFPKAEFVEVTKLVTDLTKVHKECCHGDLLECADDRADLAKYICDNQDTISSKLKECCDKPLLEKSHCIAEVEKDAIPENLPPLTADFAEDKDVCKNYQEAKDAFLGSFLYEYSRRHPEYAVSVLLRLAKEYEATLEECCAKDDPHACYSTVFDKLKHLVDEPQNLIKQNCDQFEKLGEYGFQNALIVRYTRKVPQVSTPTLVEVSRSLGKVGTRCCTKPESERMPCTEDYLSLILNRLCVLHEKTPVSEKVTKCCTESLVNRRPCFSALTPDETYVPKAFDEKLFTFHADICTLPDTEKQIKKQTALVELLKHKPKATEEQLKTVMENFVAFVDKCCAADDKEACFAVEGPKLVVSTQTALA

B1: Helix 5 peptide (LIMP-2-derived, L152-E175) (peptide)
peptide: {Biotin-Ttds}-LREIIEAMLKAYQQKLFVTHTVDE-OH
notes: Synthetic peptide from jpt Peptide Technologies; also called wild-type helix 5 peptide; LIMP-2-derived helix 5 peptide
**Q.** Does B1 bind [1]?
**A.** no binding

**Q.** Does B1 bind [2]?
**A.** no binding

Source: patent publication US20170258870A1 (NORTHWESTERN UNIVERSITY, published 2017)
